Series [1] relates to HeLa Kyoto. The series can be described thus: solubility in G1/S (NP-40 vs SDS abundance) (log2 ratio); higher = more soluble. To be noted: cell cycle stage: G1/S.
Series [2] deals with HeLa Kyoto. The series can be described thus: thermal stability score vs G1/S (z-score of summed log2 fold changes over temperatures); higher = more thermally stable than in G1/S.
Series [3] has as its system HeLa Kyoto. In words: solubility change mitosis vs G1/S (difference of NP-40 vs SDS log2 ratios) (log2 ratio difference); higher = more soluble in mitosis.
Series [4] deals with HeLa Kyoto. In words: melting temperature (median over replicates), in situ; higher = more thermally stable.
Where [5] appears, read: cell cycle stage: early G1 (4.5 h after nocodazole release).

The results in this text go back to the supplement of paper PMC5998384.
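Throughout, for melting temperature (median over replicates), in situ: HeLa Kyoto cells synchronized by double thymidine or nocodazole block, proteins quantified by TMT10plex mass spectrometry, three independent biological replicates.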
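Throughout, for solubility change mitosis vs G1/S (difference of NP-40 vs SDS log2 ratios): synchronized HeLa Kyoto cells (double thymidine block for G1/S, nocodazole release for mitosis), protein amounts in NP-40 versus SDS lysates quantified by mass spectrometry, three biological replicates.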
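Throughout, for solubility in G1/S (NP-40 vs SDS abundance): HeLa Kyoto cells arrested at G1/S by double thymidine block, proteins quantified by TMT10plex mass spectrometry in mild NP-40 versus SDS extracts, three biological replicates.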
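Throughout, for thermal stability score vs G1/S (z-score of summed log2 fold changes over temperatures): synchronized HeLa Kyoto cells, proteins quantified by TMT10plex mass spectrometry, three biological replicates, mitosis taken 0.5 h after nocodazole release, G1/S directly after double thymidine block.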

For “MAGPELLLDSNIRLWVVLPIVIITFFVGMIRHYVSILLQSDKKLTQEQVSDSQVLIRSRVLRENGKYIPKQSFLTRKYYFNNPEDGFFKKTKRKVVPPSPMTDPTMLTDMMKGNVTNVLPMILIGGWINMTFSGFVTTKVPFPLTLRFKPMLQQGIELLTLDASWVSSASWYFLNVFGLRSIYSLILGQDNAADQSRMMQEQMTGAAMAMPADTNKAFKTEWEALELTDHQWALDDVEEELMAKDLHFEGMFKKELQTSIF [EMC3]”, the “solubility in G1/S (log2)” value in series [1] was -0.174. Moreover, the thermal stability score is -0.437 in series [2] (setting [5]) and -0.599 in series [2] (cell cycle stage: mitosis). For the same sequence, the “solubility change mitosis (log2)” value in series [3] is -0.25. Further, the results for the melting temperature in series [4] (cell cycle stage: G1/S) and in series [4] (cell cycle stage: mitosis) were 54.1 °C and 53.7 °C, respectively.
With “MAGPGPGPGDPDEQYDFLFKLVLVGDASVGKTCVVQRFKTGAFSERQGSTIGVDFTMKTLEIQGKRVKLQIWDTAGQERFRTITQSYYRSANGAILAYDITKRSSFLSVPHWIEDVRKYAGSNIVQLLIGNKSDLSELREVSLAEAQSLAEHYDILCAIETSAKDSSNVEEAFLRVATELIMRHGGPLFSEKSPDHIQLNSKDIGEGWGCGC [RAB43]”, the “solubility in G1/S (log2)” value in series [1] is -0.224. Moreover, the thermal stability score in series [2] (setting [5]) is -0.0567; in series [2] (cell cycle stage: mitosis) it was 0.366. Moreover, the “solubility change mitosis (log2)” value in series [3] was determined as 0.296. In addition, the melting temperature turned out to be 55.1 °C in series [4] (cell cycle stage: G1/S) and 54.6 °C in series [4] (cell cycle stage: mitosis).
For the sequence “MAGQGLPLHVATLLTGLLECLGFAGVLFGWPSLVFVFKNEDYFKDLCGPDAGPIGNATGQADCKAQDERFSLIFTLGSFMNNFMTFPTGYIFDRFKTTVARLIAIFFYTTATLIIAFTSAGSAVLLFLAMPMLTIGGILFLITNLQIGNLFGQHRSTIITLYNGAFDSSSAVFLIIKLLYEKGISLRASFIFISVCSTWHVARTFLLMPRGHIPYPLPPNYSYGLCPGNGTTKEEKETAEHENRELQSKEFLSAKEETPGAGQKQELRSFWSYAFSRRFAWHLVWLSVIQLWHYLFIGTLNSLLTNMAGGDMARVSTYTNAFAFTQFGVLCAPWNGLLMDRLKQKYQKEARKTGSSTLAVALCSTVPSLALTSLLCLGFALCASVPILPLQYLTFILQVISRSFLYGSNAAFLTLAFPSEHFGKLFGLVMALSAVVSLLQFPIFTLIKGSLQNDPFYVNVMFMLAILLTFFHPFLVYRECRTWKESPSAIA [SLC43A3]”, the “solubility in G1/S (log2)” value in series [1] amounted to 0.205. In addition, the thermal stability score was -0.857 in series [2] (setting [5]) and -2.36 in series [2] (cell cycle stage: mitosis). In series [3], the “solubility change mitosis (log2)” value is -0.114. The values for the melting temperature in series [4] (cell cycle stage: G1/S) and in series [4] (cell cycle stage: mitosis) were 58.3 °C and 58.2 °C, respectively.
In the case of “MAGYLRVVRSLCRASGSRPAWAPAALTAPTSQEQPRRHYADKRIKVAKPVVEMDGDEMTRIIWQFIKEKLILPHVDIQLKYFDLGLPNRDQTDDQVTIDSALATQKYSVAVKCATITPDEARVEEFKLKKMWKSPNGTIRNILGGTVFREPIICKNIPRLVPGWTKPITIGRHAHGDQYKATDFVADRAGTFKMVFTPKDGSGVKEWEVYNFPAGGVGMGMYNTDESISGFAHSCFQYAIQKKWPLYMSTKNTILKAYDGRFKDIFQEIFDKHYKTDFDKNKIWYEHRLIDDMVAQVLKSSGGFVWACKNYDGDVQSDILAQGFGSLGLMTSVLVCPDGKTIEAEAAHGTVTRHYREHQKGRPTSTNPIASIFAWTRGLEHRGKLDGNQDLIRFAQMLEKVCVETVESGAMTKDLAGCIHGLSNVKLNEHFLNTTDFLDTIKSNLDRALGRQ [IDH2]”, the “solubility in G1/S (log2)” value in series [1] came to 0.137. The thermal stability score is -0.161 in series [2] (setting [5]) and 0.659 in series [2] (cell cycle stage: mitosis). Also, the “solubility change mitosis (log2)” value in series [3] was -0.113. For the same sequence, the melting temperature in series [4] (cell cycle stage: G1/S) is 53.7 °C; in series [4] (cell cycle stage: mitosis), 54.1 °C.
As to “MAILFAVVARGTTILAKHAWCGGNFLEVTEQILAKIPSENNKLTYSHGNYLFHYICQDRIVYLCITDDDFERSRAFNFLNEIKKRFQTTYGSRAQTALPYAMNSEFSSVLAAQLKHHSENKGLDKVMETQAQVDELKGIMVRNIDLVAQRGERLELLIDKTENLVDSSVTFKTTSRNLARAMCMKNLKLTIIIIIVSIVFIYIIVSPLCGGFTWPSCVKK [VAMP7]”, in series [1], the “solubility in G1/S (log2)” value is -0.0498. The results for the thermal stability score in series [2] (setting [5]) and in series [2] (cell cycle stage: mitosis) were 1.62 and 1.41, respectively. Also, the “solubility change mitosis (log2)” value in series [3] is -0.283. Moreover, the melting temperature in series [4] (cell cycle stage: G1/S) was determined as 54.4 °C; in series [4] (cell cycle stage: mitosis), 53.1 °C.
For “MAKAKKVGARRKASGAPAGARGGPAKANSNPFEVKVNRQKFQILGRKTRHDVGLPGVSRARALRKRTQTLLKEYKERDKSNVFRDKRFGEYNSNMSPEEKMMKRFALEQQRHHEKKSIYNLNEDEELTHYGQSLADIEKHNDIVDSDSDAEDRGTLSAELTAAHFGGGGGLLHKKTQQEGEEREKPKSRKELIEELIAKSKQEKRERQAQREDALELTEKLDQDWKEIQTLLSHKTPKSENRDKKEKPKPDAYDMMVRELGFEMKAQPSNRMKTEAELAKEEQEHLRKLEAERLRRMLGKDEDENVKKPKHMSADDLNDGFVLDKDDRRLLSYKDGKMNVEEDVQEEQSKEASDPESNEEEGDSSGGEDTEESDSPDSHLDLESNVESEEENEKPAKEQRQTPGKGLISGKERAGKATRDELPYTFAAPESYEELRSLLLGRSMEEQLLVVERIQKCNHPSLAEGNKAKLEKLFGFLLEYVGDLATDDPPDLTVIDKLVVHLYHLCQMFPESASDAIKFVLRDAMHEMEEMIETKGRAALPGLDVLIYLKITGLLFPTSDFWHPVVTPALVCLSQLLTKCPILSLQDVVKGLFVCCLFLEYVALSQRFIPELINFLLGILYIATPNKASQGSTLVHPFRALGKNSELLVVSAREDVATWQQSSLSLRWASRLRAPTSTEANHIRLSCLAVGLALLKRCVLMYGSLPSFHAIMGPLQALLTDHLADCSHPQELQELCQSTLTEMESQKQLCRPLTCEKSKPVPLKLFTPRLVKVLEFGRKQGSSKEEQERKRLIHKHKREFKGAVREIRKDNQFLARMQLSEIMERDAERKRKVKQLFNSLATQEGEWKALKRKKFKK [NOP14]”, the “solubility in G1/S (log2)” value in series [1] was -1.66. The figures for the thermal stability score in series [2] (setting [5]) and in series [2] (cell cycle stage: mitosis) were 0.586 and 1.66, respectively. Also, the “solubility change mitosis (log2)” value in series [3] is 0.737. The melting temperature in series [4] (cell cycle stage: G1/S) is 49.2 °C; in series [4] (cell cycle stage: mitosis), 50.4 °C.
For the sequence “MAKKTYDLLFKLLLIGDSGVGKTCVLFRFSDDAFNTTFISTIGIDFKIKTVELQGKKIKLQIWDTAGQERFHTITTSYYRGAMGIMLVYDITNGKSFENISKWLRNIDEHANEDVERMLLGNKCDMDDKRVVPKGKGEQIAREHGIRFFETSAKANINIEKAFLTLAEDILRKTPVKEPNSENVDISSGGGVTGWKSKCC [RAB10]”, the “solubility in G1/S (log2)” value in series [1] is -0.153. In addition, the results for the thermal stability score in series [2] (setting [5]) and in series [2] (cell cycle stage: mitosis) were -0.265 and -1.23, respectively. Moreover, the “solubility change mitosis (log2)” value in series [3] is -0.146. Further, the values for the melting temperature in series [4] (cell cycle stage: G1/S) and in series [4] (cell cycle stage: mitosis) were 57.5 °C and 56.5 °C, respectively.
